Source: article PMC8481266, “Structural and functional characterization of the bacterial biofilm activator RemA” (Nature Communications, 2021)
Several values for one entry are separate records, joined by “and”; a condition that tells them apart may be missing. Identical values can stand only once. Blank lines part the entries; values can stand above or below the molecule they belong to.

Tests used:
[1] = biological target: T1, (Gt)RemA-R18W R18W (Geobacillus thermodenitrificans NG-80) (UniProt A4IM41); assay: EMSA; settings: 20 mM HEPES pH 8.0, 1000 mM NaCl, 20 mM MgCl2, 20 mM KCl, 0.3 ug/ml BSA, 25 ug/ml herring sperm DNA, 10% glycerol, 0.25 mg/ml Orange-G; 1 pmol DNA in 14.5 ul …
T1 sequence: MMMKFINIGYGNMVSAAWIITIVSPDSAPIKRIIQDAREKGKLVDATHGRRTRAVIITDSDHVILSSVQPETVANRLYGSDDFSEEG

[2] = biological target: T2, (Gt)RemA wild type, tag-free (Geobacillus thermodenitrificans NG-80) (UniProt A4IM41); assay: EMSA; settings: 20 mM HEPES pH 8.0, 1000 mM NaCl, 20 mM MgCl2, 20 mM KCl, 0.3 ug/ml BSA, 25 ug/ml herring sperm DNA, 10% glycerol, 0.25 mg/ml Orange-G; 1 pmol DNA in 14.5 ul …
T2 sequence: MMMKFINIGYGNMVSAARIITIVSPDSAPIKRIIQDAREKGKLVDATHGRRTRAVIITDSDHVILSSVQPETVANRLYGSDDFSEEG

[3] = biological target: T3, (Gt)RemA-R50A R50A (Geobacillus thermodenitrificans NG-80) (UniProt A4IM41); assay: EMSA; settings: 20 mM HEPES pH 8.0, 1000 mM NaCl, 20 mM MgCl2, 20 mM KCl, 0.3 ug/ml BSA, 25 ug/ml herring sperm DNA, 10% glycerol, 0.25 mg/ml Orange-G; 1 pmol DNA in 14.5 ul …
T3 sequence: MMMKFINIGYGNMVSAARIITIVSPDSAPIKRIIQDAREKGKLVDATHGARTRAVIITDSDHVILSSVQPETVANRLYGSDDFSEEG

[4] = biological target: T4, (Gt)RemA wild type, His-tagged (Geobacillus thermodenitrificans NG-80) (UniProt A4IM41); assay: EMSA; settings: 20 mM HEPES pH 8.0, 1000 mM NaCl, 20 mM MgCl2, 20 mM KCl, 0.3 ug/ml BSA, 25 ug/ml herring sperm DNA, 10% glycerol, 0.25 mg/ml Orange-G; 1 pmol DNA in 14.5 ul …
T4 sequence: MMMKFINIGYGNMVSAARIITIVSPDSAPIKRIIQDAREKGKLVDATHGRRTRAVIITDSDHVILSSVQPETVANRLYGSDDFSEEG

[5] = biological target: T5, (Gt)RemA-R51A R51A (Geobacillus thermodenitrificans NG-80) (UniProt A4IM41); assay: EMSA; settings: 20 mM HEPES pH 8.0, 1000 mM NaCl, 20 mM MgCl2, 20 mM KCl, 0.3 ug/ml BSA, 25 ug/ml herring sperm DNA, 10% glycerol, 0.25 mg/ml Orange-G; 1 pmol DNA in 14.5 ul …
T5 sequence: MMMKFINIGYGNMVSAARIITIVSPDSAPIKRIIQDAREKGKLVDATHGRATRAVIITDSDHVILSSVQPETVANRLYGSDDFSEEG

[6] = biological target: (Gt)RemA-R51A/R53A (Geobacillus thermodenitrificans NG-80); assay: crystal structure; sitting-drop crystallisation at 20 °C; X-ray data at ESRF; wild type by Se-SAD, variants by molecular replacement
[7] = biological target: (Gt)RemA-R18W (Geobacillus thermodenitrificans NG-80); assay: SEC-MALS; analytical SEC-MALS of the two major SEC peaks; (Gt)RemA at 500 µM (Fig. 1b); R18W variant in Supplementary Fig. 1d
[8] = biological target: (Gt)RemA-R18W (Geobacillus thermodenitrificans NG-80); assay: crystal structure; sitting-drop crystallisation at 20 °C; X-ray data at ESRF; wild type by Se-SAD, variants by molecular replacement
[9] = biological target: (Gt)RemA, RemA from Geobacillus thermodenitrificans, wild type, with N-terminal His-tag (Geobacillus thermodenitrificans NG-80); assay: as above
[10] = biological target: (Gt)RemA, RemA from Geobacillus thermodenitrificans, wild type, with N-terminal His-tag (Geobacillus thermodenitrificans NG-80); assay: SEC-MALS; analytical SEC-MALS of the two major SEC peaks; (Gt)RemA at 500 µM (Fig. 1b); R18W variant in Supplementary Fig. 1d
[11] = biological target: (Gt)RemA, RemA from Geobacillus thermodenitrificans, wild type, with N-terminal His-tag (Geobacillus thermodenitrificans NG-80); assay: crystal structure; sitting-drop crystallisation at 20 °C; X-ray data at ESRF; wild type by Se-SAD, variants by molecular replacement; remark: listed apart in the source
[12] = biological target: (His)-GB1-tagged (Gt)RemA (Geobacillus thermodenitrificans NG-80); assay: SEC; SEC analysis of the (His)-GB1 constructs of (Bs)RemA and (Gt)RemA (Supplementary Figs. 2a, b)
[13] = biological target: the molecule itself; assay: as above

Molecule: CTCCTCTATTCCTGTCGTTATTTCGTTCATTATAAGGAATTTTTCGTTCTTTATAAAATTTAAAATAATAAGGGAAGTGCAGTAAATTAGAGGAAAATCATGATTTTGTTCTCCAAAGAGAACTTATTGGCTTATTTTGCAATTTTTAAATAATAACGTTTTCTTTTATAATCCAATCATTAACAGAAAGGGGCGCGGGAAGCCAGCCGCGGGAAGGCTGAAGGCTATGAATACATGAATGAGAATATGAGTTTCAAAGAATTATATGCGATTGTCAGACACAGATTCG (double strand) [PepsA 289 bp fragment]
binding [1]: binds
binding [2]: binds
binding [3]: no binding
binding [4]: binds
binding [5]: no binding

Molecule: (Gt)RemA-R51A/R53A (natural protein)
stoichiometry N [6]: 8

B1: (His)-GB1-tagged (Bs)RemA (natural protein, B. subtilis strain 3610, UniProt Q7WY72 1-89, looked up)
chain: MTIKLINIGFGNIISANRMISIVSPESAPIKRMIQDARDRGMLIDATYGRRTRAVVVMDSDHIILSAVQPETVAHRLSVKEEIMDEGQG
notes: RemA of Bacillus subtilis strain 3610; MW 9.6 kDa; A TEV cleavage site stands between the solubility tag and RemA; removal of the tag led to precipitation; also called His-GB1-(Bs)RemA; (Bs)RemA (His)-GB1 construct; not shown: His, N-terminal, kept
stoichiometry N [13]: 8

Now from value to molecule:

stoichiometry N [7]: 14 and 7
stoichiometry N [8]: 7
Molecule: (Gt)RemA-R18W (natural protein)

stoichiometry N [9]: 16
stoichiometry N [10]: 16 and 8
stoichiometry N [11]: 8
Molecule: (Gt)RemA, RemA from Geobacillus thermodenitrificans, wild type, with N-terminal His-tag (natural protein)

stoichiometry N [12]: 8
Molecule: (His)-GB1-tagged (Gt)RemA (natural protein)
